No end group written: not given here. *: point of attachment. Biotin = O=C1N[C@H]2[C@H](CS[C@H]2CCCCC(=O)*)N1
Biological target: T1, HLA-DR3 on VAVY cells (HLA-DRβ1-Arg74 positive) (Homo sapiens, UniProt P01903+P01911, A100K/A102G/A103R/A169T/F55Y/I96L/K41T/L162R/M171V/P40S/Q125H/Q178H/Q39Y/R42S/S66N/T106N/T262R/W38E/Y61H)
T1 construct: VAVY B-cell line that is homozygous for DR3 (confirmed to contain DRβ1-Arg74); host or cells: VAVY B-cell line
Assay: Tg.2098 peptide binding to VAVY cells, flow cytometry
Assay type: cell-based
Details: incubated without Ia (40% Captisol alone); biotinylated peptide
Description: VAVY cells (European Collection of Cell Cultures) were cultured in RPMI (ATCC, Manassas, Va.) supplied with 10% FBS (Sigma-Aldrich, St. Louis, Mo.), 1% Penicillin-Streptomycin (Corning, N.Y.), 2 mM glutamine (Corning, N.Y.) and […] ciprofloxacin hydrochloride (Hospira, Lake Forest, Ill.). Cells were grown at 37° C., 5% CO2 and passaged 1-2 times a week. Cells expressing DR2 (National Development and Research Institutes, Inc) were cultured using the same conditions as VAVY cells. N-terminal biotinylated peptide Tg.2098 was used to test for binding to VAVY cells which express HLA-DR3 on their surface (HLA-DRβ1-Arg74 positive). APC Streptavidin (BD Biosciences, Franklin Lakes, N.J.) was used to detect the biotinylated peptides. A scrambled peptide of Tg.2098 (scr2098) was used as a negative control. VAVY cells were seeded at 2.5×10^6 cells/mL in a 24-well plate (BD Biosciences) and pre-incubated for 7 hours with 0.025 mM of compound Ia or 40% Captisol (Ligand Pharmaceuticals, Inc, La Jolla, Calif.) [the vehicle used to dissolve test compound in this experiment], before 0.5 μM Tg.2098 was added. After 24 h incubation, cells were stained with PE mouse anti-human HLA-DR (BD Biosciences) and APC Streptavidin to detect binding of the peptide to VAVY cells and the inhibitory effect of Compound Ia. Inhibition was analyzed by flow cytometry. As a negative control, cells expressing HLA-DR2 were pre-incubated with example Ia or 40% Captisol, before biotinylated myelin basic protein (MBP) 87-99 (known binder to HLA-DR2) was added and incubated for 24 hours. HLA-DR2 cells were stained with PE mouse anti-human HLA-DR and APC Streptavidin to detect binding of biotinylated MBP87-99 to DR2 expressing cells and to assess the inhibitory effect of compound Ia on peptide binding. To confirm the ELISA results we performed binding inhibition studies using the VAVY B-cell line that is homozygous for DR3 (confirmed to contain DRβ1-Arg74). […]

T1 sequence (P01903 26-254, other chains not shown): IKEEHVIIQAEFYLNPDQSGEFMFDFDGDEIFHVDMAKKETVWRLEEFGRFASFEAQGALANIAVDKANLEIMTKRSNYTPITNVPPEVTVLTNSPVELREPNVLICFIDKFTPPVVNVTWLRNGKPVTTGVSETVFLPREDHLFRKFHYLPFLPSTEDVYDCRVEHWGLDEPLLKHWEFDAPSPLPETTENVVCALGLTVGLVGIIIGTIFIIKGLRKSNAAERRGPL

| binding of peptide to HLA-DR3-positive VAVY cells | Sequence |
| --- | --- |
| 42.7% | LSSVVVDPSIRHFDV (Biotin-LSSVVVDPSIRHFDV) [Tg.2098] |
| 2.1% | HDLFSRIDSSVVVVP [scr.2098] |

Reference: patent publication US11266642B2, “Small molecule inhibitors of HLA-DR3 binding for treating autoimmune thyroiditis” (ICAHN SCHOOL OF MEDICINE AT MOUNT SINAI, priority 2015, dated 2022)
